Measurements published in the RNAGym collection of RNA variant scans (doi:10.1073/pnas.2313332121).
Variants at the floor of the assay were thinned out.

B1: TPR 5TU (parent)
chain: GGAUCUUCUCGAUCUAACAAAAAAGACAAAUCUGCCACAAAGCUUGAGAGCAUCUUCGGAUGCAGAGGCGGCAGCCUUCGGUGGCGCGAUAGCGCCAACGUUCUCAACUAUGACACGCAAAACGCGUGCUCCGUUGAAUGGAGUUUAUCAUG

Variants of: B1
Experiment: polymerase ribozyme fitness, log enrichment relative to wild type (log ratio); higher = more active; in vitro selection for triplet polymerase activity
Outline: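 PCR was used to build mutant libraries for each subunit of a heterodimeric triplet polymerase ribozyme, which were then transcribed. A single in vitro selection round, in triplicate, used a frozen incubation at −7 °C and recovered extended constructs by gel excision, streptavidin beads and RT-PCR. Fitness is the logarithm of genotype enrichment relative to wild-type enrichment, averaged over replicates with inverse-variance weights. The logarithm is base 2, and after Illumina sequencing only genotypes with ≥10 input reads and ≥1 read per output were kept.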

| Variant | polymerase ribozyme fitness (log ratio) |
| --- | --- |
| U45A U77A C87U U90G G92C G126A A138G | ≤ -4.2 |
| A17U G42U C99A C105U A120U | ≤ -4.2 |
| G83A A91G C93U C149A | ≤ -4.2 |
| A26G U55A | -2.03 |
| C96U G117U A120U C149A | ≤ -4.2 |
| C35U C95U A107C U109A A115U | ≤ -4.2 |
| C93U A142C | -0.842 |
| A16G C27G U44A C79G | ≤ -4.2 |
| A73G C87G U146G | ≤ -4.2 |
| U53A C54A A91U | ≤ -4.2 |
| A17C C99A | -0.000978 |
| A37C C103G | -3.6 |
| C38U C85G C93U G117U G128C | ≤ -4.2 |
| A52G A73G C99U G117A | -1.7 |
| C75U G128A | -3.95 |
| G83C C131G | -3.32 |
| A52C U55A U56A G86C | -4.01 |
| C5A U45G C85U A115U G141U | -3.86 |
| C93A A97U G128A | ≤ -4.2 |
| C5A G50A C105U C116A | -1.3 |
| C18G A39G A40U G67A U90C A97G C99U | ≤ -4.2 |
| C27U U31A G48U C85U | -2.25 |
| C85A C108U U135A U144C | -4.17 |
| A19U C96A | -0.531 |

| Variant | polymerase ribozyme fitness (log ratio) |
| --- | --- |
| U13C U45G G81A C85U C118U G126A | ≤ -4.2 |
| A19C A39U G84C C93A U148A | ≤ -4.2 |
| C27U A39C G50U C123A | ≤ -4.2 |
| C14G A26U G58C A89U G117U A120C C125A | ≤ -4.2 |
| U33A C57U C79G A89U A97G | ≤ -4.2 |
| U13A C105A A107C U134A | ≤ -4.2 |
| A17U C32U G128U | ≤ -4.2 |
| G46C U55G G58U | -0.983 |
| U4G A24G U44A U56G G94A A138C | ≤ -4.2 |
| U9A C10U C75A C87A A110G A119C | ≤ -4.2 |
| A17U A19C C38A G42C U56A U78G A113U C132G A142G U148A | ≤ -4.2 |
| C14G C18U G92C | -2.89 |
| C38U U45A G84U C129A A142C | ≤ -4.2 |
| A29G | -1.81 |
| G58A C72U C76A | -1.3 |
| C18U A97G C131G | -3.22 |
| C54U C69A U144C | -3.89 |
| A19G A23G G67C C87U | ≤ -4.2 |
| A41C G50C G83U C95A C99U C105G A137C | ≤ -4.2 |
| G83U A97G A142U | -3.29 |
| C14U G62C C75A C93G | ≤ -4.2 |
| G83C C132A | -2.69 |
| A91U A147G | ≤ -4.2 |
| A26U C54A C93A A138C G141C | ≤ -4.2 |

| Variant | polymerase ribozyme fitness (log ratio) |
| --- | --- |
| G25C U33A C69G G71A | ≤ -4.2 |
| A23C G88U U144G | ≤ -4.2 |
| C27G C87A | ≤ -4.2 |
| C5A C69G G84A C108U | -3.39 |
| G58C A91C C125G | ≤ -4.2 |
| A52C C69A C96A | -3.18 |
| U4A G83C G94U U148G | ≤ -4.2 |
| C57U C85U G143A | -0.317 |
| C54A U56A G68U U82G G83C G133C | ≤ -4.2 |
| A40U G48C C85G C99A G143A | ≤ -4.2 |
| C118G G141A | -0.0985 |
| A16C U55A A106G | -1.85 |
| A29C U53A | ≤ -4.2 |
| U4C A17C G42A G50C U53A G62A U90G A120U | ≤ -4.2 |
| A37C A52C G84A | -3.24 |
| G92U U145A | 0.602 |
| C27A U82G C87G G94A U135A | ≤ -4.2 |
| C32G U146A | -3.88 |
| G59A U127C | -1.23 |
| U9A A24U A37C G42C G50C G58A C85G A91C U148A | ≤ -4.2 |
| G92U U101A A119U G143U | -3.62 |
| A12U A16C A28G C38U A41U G86A A150G | ≤ -4.2 |
| G50U U56A G94U A106G C116G C123U | -0.9 |
| U56A G59A C105G A110G A150C | ≤ -4.2 |

| Variant | polymerase ribozyme fitness (log ratio) |
| --- | --- |
| A39G C87U A89G G126A C132U | ≤ -4.2 |
| G48C G59C A73G C76U C96U U101C | -3.78 |
| A39G U55G G84A U135G | ≤ -4.2 |
| U6A U55A | -1.4 |
| A12U U61G C93U G94A U144G | -2.83 |
| C14U C35U C85U A106G A115G | -3.81 |
| C5G U82A C95U | -0.788 |
| G25C C76U C79G C93A C118U | ≤ -4.2 |
| C57G G84U U109G G136U | -3.84 |
| U55A C79G G81A | -4.18 |
| A12C A30G | -3.77 |
| G50A C96G | -1.55 |
| G59A G71A G117C | -3.56 |
| G68A G88A C96G C118A G126A | -4.16 |
| C14G A24U | -3.18 |
| A12C C38U C54U C76U U77G G84A U127A A138U | ≤ -4.2 |
| C5G A29U A64U G86U A150G | ≤ -4.2 |
| C38A G48C G71U | ≤ -4.2 |
| A39U U44C U53A G62U G86A | ≤ -4.2 |
| G70A C79A C87G C99U C105U A142G | ≤ -4.2 |
| A23U A26U C27U A41U C93U C95A | ≤ -4.2 |
| C72A | -3.87 |
| A47C C93U | -1.69 |
| A26U A49G C95U | -3.28 |

| Variant | polymerase ribozyme fitness (log ratio) |
| --- | --- |
| A41C C63U C76G C93A U127A | ≤ -4.2 |
| U6A G25U | -1.78 |
| C75U G88A A119U | ≤ -4.2 |
| C116U A119U U135C | -2.59 |
| A16U G133C U146A | -3.79 |
| C38G G71A U82G A107U | ≤ -4.2 |
| U55G G81A U139C | ≤ -4.2 |
| U55A G143C | -2.99 |
| U77G G92U A115U | ≤ -4.2 |
| U13C A91U A120U | -3.86 |
| C14U G50C U56G C69U C118U | ≤ -4.2 |
| G83A C96U C118U | -0.697 |
| A49G A113U | -2.42 |
| C14A A39U A49C C57A C79G G86U | ≤ -4.2 |
| A66U | -3.46 |
| C5A C32A U56A C85U A113C | ≤ -4.2 |
| A41U A89U C93U G117U A147U | -2.89 |
| A29C A40U A41C G84A G141A | ≤ -4.2 |
| U6G A22G U139A | ≤ -4.2 |
| A12U G80U G84C A97G U134C | ≤ -4.2 |
| U53A G80U C96A G143A U146C C149G | ≤ -4.2 |
| A16U G81A | -1.95 |
| U4C G48A | -1.42 |
| C116A | 1.34 |

| Variant | polymerase ribozyme fitness (log ratio) |
| --- | --- |
| U55A G59A U148G | -2.52 |
| G59C G62A A122U U134G | -3.13 |
| A24C G88U C95G C96U | ≤ -4.2 |
| C38U G48C G92A A142C G143U | ≤ -4.2 |
| A24C A30U A52G G58A G68A U82G C93U A98U G100C C125A G126U | ≤ -4.2 |
| U7C C8A C32U A91U A121G U134C | ≤ -4.2 |
| U6C A41G U56G G59A U61G C76A A91C C95G G124A | ≤ -4.2 |
| U15G A21U C85U A121U A138G | -4.04 |
| A22G C27A A29G C38U G50C C72U G84A C118A | ≤ -4.2 |
| A23U A64C G67A G81C | ≤ -4.2 |
| C54A U55A A60U | -1.37 |
| A47C C57A G84C G86U U146C C149U | ≤ -4.2 |
| U15C A122U | 0.45 |
| U4G C54G A64U C95U U134G | ≤ -4.2 |
| G86U G88U G94U A150U | ≤ -4.2 |
| C10G A29U C95U C108A G117A G143C | ≤ -4.2 |
| G59C A110G | -3.79 |
| C10A A91G C93U U144G | ≤ -4.2 |
| A16G G42A A52G C95U C96A C99G | ≤ -4.2 |
| A66U C76G C85A C95U U102G A113U C116A A142C | ≤ -4.2 |
| A21C A23U A24U G92A A106G G133A | ≤ -4.2 |
| C5G G50C | -3.2 |
| C43G G86U U139C | -4.11 |
| A17G C35A A40C G67U C96A C129G | ≤ -4.2 |

| Variant | polymerase ribozyme fitness (log ratio) |
| --- | --- |
| A52U C57A C95A A97U | -2.33 |
| A30C C95U | -4.11 |
| G80C C87U | ≤ -4.2 |
| A41U A52C A98U | -2.65 |
| U15C C54A G59A G84U A106G U146G | -2.98 |
| G25A A49G C96G | -3.91 |
| A28U C79A A91U C108G U130G G143C | ≤ -4.2 |
| C38G G42C U82G G86C G141C U144G | ≤ -4.2 |
| A30U A52U U78A | ≤ -4.2 |
| A24U U31C G59C A66G A91U C114U | ≤ -4.2 |
| A23G C32G G70A C85G | ≤ -4.2 |
| A60G C93G | -3.44 |
| A19U C96G A122U | -0.445 |
| C87A U90G U134G | ≤ -4.2 |
| A91G C116G | -1.65 |
| A16G C27U | -2 |
| U15C A24G C76U U145A | ≤ -4.2 |
| A24U A60G C85U A97C C129U | -0.602 |
| A20U A23G G50U G86A A110C C129G G140A | ≤ -4.2 |
| U55A C69U C93U | -3.95 |
| U44G U61C | ≤ -4.2 |
| C36U C54A C95G C108U U109C C116U | ≤ -4.2 |
| A37C C43U G84A C114A U130G U151G | ≤ -4.2 |
